Sequences and labels used below:
B1: LRRC45 (parent)
chain: DLSAANEKNLLLQNQVDELERKFR
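Also: lentivirally expressed fusions sorted by FACS into six bins by GFP to DsRed ratio, PSI derived from sequencing read proportions per bin multiplied by bin number.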

Variants of B1 are the subject of this series. Description: protein stability index of a GFP-peptide fusion (GPS, HEK-293T) (PSI 1-6); higher = more stable. Particulars: c terminus: a fixed tail appended.
In the case of DPSAANEKNLLLQNQVDELERKFR [L2P], the protein stability index was found to be 4.67.

On to DISAANEKNLLLQNQVDELERKFR [L2I], for which the protein stability index amounted to 3.27.

For DWSAANEKNLLLQNQVDELERKFR [L2W], the protein stability index was determined as 4.27.

With DTSAANEKNLLLQNQVDELERKFR [L2T], the protein stability index turned out to be 4.92.

Consider DMSAANEKNLLLQNQVDELERKFR [L2M], for which the protein stability index came to 4.19.

Turning to DLSEANEKNLLLQNQVDELERKFR [A4E], the protein stability index was 4.53.

For DLSKANEKNLLLQNQVDELERKFR [A4K], the protein stability index came out at 4.36.

As to DLSRANEKNLLLQNQVDELERKFR [A4R], the protein stability index was 4.07.

As for DLSVANEKNLLLQNQVDELERKFR [A4V], the protein stability index worked out at 3.77.

Take DLSIANEKNLLLQNQVDELERKFR [A4I]: the protein stability index is 3.81.

As to DLSAANEKNLALQNQVDELERKFR [L11A], the protein stability index is 4.42.

On to DLSAANEKNLGLQNQVDELERKFR [L11G], for which the protein stability index was determined as 4.32.

Consider DLSAANEKNLHLQNQVDELERKFR [L11H], for which the protein stability index was found to be 4.59.

Regarding DLSAANEKNLWLQNQVDELERKFR [L11W], the protein stability index is 3.89.

As to DLSAANEKNLLLQNNVDELERKFR [Q15N], the protein stability index came out at 3.75.

Take DLSAANEKNLLLQNWVDELERKFR [Q15W]: the protein stability index turned out to be 3.27.

As to DLSAANEKNLLLQNIVDELERKFR [Q15I], the protein stability index worked out at 3.38.

Regarding DLSAANEKNLLLQNKVDELERKFR [Q15K], the protein stability index came to 4.06.

With DLSAANEKNLLLQNYVDELERKFR [Q15Y], the protein stability index was found to be 2.76.

As for DLSAANEKNLLLQNQVDELVRKFR [E20V], the protein stability index worked out at 3.75.

With DLSAANEKNLLLQNQVDELHRKFR [E20H], the protein stability index was 3.35.

Turning to DLSAANEKNLLLQNQVDELWRKFR [E20W], the protein stability index came out at 2.91.

Take DLSAANEKNLLLQNQVDEVERKFR [L19V]: the protein stability index was 4.31.

Regarding DLSAANEKNLLLQNQVDLLERKFR [E18L], the protein stability index worked out at 3.31.

Turning to DLSAANEKNLLLQNQVDALERKFR [E18A], the protein stability index worked out at 3.57.

As for DLSAANEKNLLLQNQVDKLERKFR [E18K], the protein stability index came out at 3.94.

For DLSAANEKNLLLQNQVDILERKFR [E18I], the protein stability index turned out to be 2.49.

DLSAANEKNLLLQNQVDTLERKFR [E18T]: the protein stability index was 3.7.

On to DLSAANEKNLLLQNQVDFLERKFR [E18F], for which the protein stability index is 3.16.

Take DLSAANEKNLLLQNQVDELEYKFR [R21Y]: the protein stability index worked out at 4.14.

On to DLSAANEKNLLLQNQVDELEFKFR [R21F], for which the protein stability index was 3.57.

For DLSAAGEKNLLLQNQVDELERKFR [N6G], the protein stability index worked out at 4.82.

For DLSAALEKNLLLQNQVDELERKFR [N6L], the protein stability index was determined as 3.8.

Regarding DLSAASEKNLLLQNQVDELERKFR [N6S], the protein stability index was determined as 4.92.

DLSAAPEKNLLLQNQVDELERKFR [N6P]: the protein stability index was 4.62.

On to YLSAANEKNLLLQNQVDELERKFR [D1Y], for which the protein stability index came out at 4.19.

LLSAANEKNLLLQNQVDELERKFR [D1L]: the protein stability index turned out to be 3.93.

On to TLSAANEKNLLLQNQVDELERKFR [D1T], for which the protein stability index came out at 3.83.

As for DLSAANEKNLLVQNQVDELERKFR [L12V], the protein stability index is 4.36.

As to DLSAANEKNLLLQIQVDELERKFR [N14I], the protein stability index stood at 3.05.

For the variant DLSAANEKNLLLQRQVDELERKFR [N14R], the protein stability index came to 3.76.

Turning to DLSAANEKNLLLQLQVDELERKFR [N14L], the protein stability index turned out to be 3.43.

Consider DLSAANEKNLLLQDQVDELERKFR [N14D], for which the protein stability index stood at 4.54.

As to DLSAANEKNLLLQSQVDELERKFR [N14S], the protein stability index was found to be 3.51.

For the variant DLSAANEKNLLLQNQVDELERKYR [F23Y], the protein stability index turned out to be 3.85.

For DLSAANEKNLLLQNQVDELERKIR [F23I], the protein stability index came to 3.6.

In the case of DLSAANEKNLLLQNQVDELERKQR [F23Q], the protein stability index came out at 4.29.

For the variant DLSAANEKNLLLQNQVDELERKGR [F23G], the protein stability index stood at 4.6.

For the variant DLSAANKKNLLLQNQVDELERKFR [E7K], the protein stability index was 3.7.

Take DLSAANGKNLLLQNQVDELERKFR [E7G]: the protein stability index came out at 3.43.

Turning to DLSAANRKNLLLQNQVDELERKFR [E7R], the protein stability index is 3.84.

Turning to DLSAANCKNLLLQNQVDELERKFR [E7C], the protein stability index stood at 3.78.

On to DLSAANAKNLLLQNQVDELERKFR [E7A], for which the protein stability index came to 3.5.

Take DLSAANQKNLLLQNQVDELERKFR [E7Q]: the protein stability index turned out to be 3.63.

With DLSAANEKNLLLQNQVDELERKFG [R24G], the protein stability index amounted to 4.48.

As to DLSAANEKNLLLQNQVDELERKFP [R24P], the protein stability index amounted to 4.59.

Regarding DLSAANEKNLLLQNQVDELERKFY [R24Y], the protein stability index was 4.17.

As to DLIAANEKNLLLQNQVDELERKFR [S3I], the protein stability index turned out to be 3.51.

Consider DLPAANEKNLLLQNQVDELERKFR [S3P], for which the protein stability index was determined as 4.31.

Take DLDAANEKNLLLQNQVDELERKFR [S3D]: the protein stability index worked out at 4.64.

With DLSAANEDNLLLQNQVDELERKFR [K8D], the protein stability index worked out at 4.21.

Turning to DLSAANEHNLLLQNQVDELERKFR [K8H], the protein stability index was found to be 4.06.

Take DLSAANEANLLLQNQVDELERKFR [K8A]: the protein stability index stood at 4.62.

Take DLSAANEYNLLLQNQVDELERKFR [K8Y]: the protein stability index was 3.63.

As to DLSAANEWNLLLQNQVDELERKFR [K8W], the protein stability index came to 3.6.

Regarding DLSAANECNLLLQNQVDELERKFR [K8C], the protein stability index was 3.83.

On to DLSAANEKNLLLQNQADELERKFR [V16A], for which the protein stability index was found to be 4.48.

DLSAANEKNLLLQNQGDELERKFR [V16G]: the protein stability index turned out to be 3.69.

With DLSAANEKNLLLQNQLDELERKFR [V16L], the protein stability index worked out at 4.05.

On to DLSAANEKNLLLQNQIDELERKFR [V16I], for which the protein stability index is 4.

As for DLSAANEKNLLLQNQDDELERKFR [V16D], the protein stability index stood at 4.12.

With DLSAINEKNLLLQNQVDELERKFR [A5I], the protein stability index came to 4.02.

In the case of DLSARNEKNLLLQNQVDELERKFR [A5R], the protein stability index is 3.67.

DLSAVNEKNLLLQNQVDELERKFR [A5V]: the protein stability index is 3.95.

For DLSAPNEKNLLLQNQVDELERKFR [A5P], the protein stability index came out at 4.

In the case of DLSAANEKNNLLQNQVDELERKFR [L10N], the protein stability index was determined as 4.17.

With DLSAANEKNGLLQNQVDELERKFR [L10G], the protein stability index came out at 4.77.

Turning to DLSAANEKNHLLQNQVDELERKFR [L10H], the protein stability index came out at 4.62.

DLSAANEKNLLLVNQVDELERKFR [Q13V]: the protein stability index amounted to 4.53.

With DLSAANEKNLLLENQVDELERKFR [Q13E], the protein stability index is 4.71.

On to DLSAANEKNLLLLNQVDELERKFR [Q13L], for which the protein stability index is 3.96.

For the variant DLSAANEKKLLLQNQVDELERKFR [N9K], the protein stability index is 4.11.

DLSAANEKCLLLQNQVDELERKFR [N9C]: the protein stability index is 4.23.

Regarding DLSAANEKGLLLQNQVDELERKFR [N9G], the protein stability index is 3.93.

With DLSAANEKNLLLQNQVDELERRFR [K22R], the protein stability index came to 3.22.

Turning to DLSAANEKNLLLQNQVDELERLFR [K22L], the protein stability index stood at 3.49.

For DLSAANEKNLLLQNQVDELERYFR [K22Y], the protein stability index worked out at 3.34.

Turning to DLSAANEKNLLLQNQVDELERTFR [K22T], the protein stability index is 3.71.

Take DLSAANEKNLLLQNQVDELERAFR [K22A]: the protein stability index was 4.27.

Regarding DLSAANEKNLLLQNQVSELERKFR [D17S], the protein stability index came to 3.46.

Take DLSAANEKNLLLQNQVWELERKFR [D17W]: the protein stability index came out at 2.9.

For DLSAANEKNLLLQNQVKELERKFR [D17K], the protein stability index came to 3.55.

Consider DLSAANEKNLLLQNQVRELERKFR [D17R], for which the protein stability index was determined as 2.97.

As to DLSAANEKNLLLQNQVPELERKFR [D17P], the protein stability index stood at 3.57.

Values taken from the supplement of paper PMC10567573.
